PMC7954794, “Protein context shapes the specificity of SH3 domain-mediated interactions in vivo” (Nature Communications, 2021)

B1: YBR102C_1 (protein, UniProt P38261 1-753, looked up)
Exocyst complex component …: MVEFSLKKARNNWKHVKKSASSPAKQKTPPSPAKPKQKTKKNPYSDLKDPATSYTLPTINARERSRVATSMQRRLSIHNTNYAPPTLDYSMPLPDMPNMIVPNDNVDSSHNNSSFTTENESVSSKGPSNSLNLSTADLSLNDSSYNKVPARSAMRNTVNPSGSNDPFNNSTSLRKMLANPHFNAKDFVHDKLGNASAITIDKFTSNLTDLSIQVQEEVKLNINKSYNEIMTVNNDLNVAMLELKRVRANINDLNEVLDQCTKIAEKRLQLQDQIDQERQGNFNNVESHSNSPALLPPLKAGQNGNLMRRDRSSVLILEKFWDTELDQLFKNVEGAQKFINSTKGRHILMNSANWMELNTTTGKPLQMVQIFILNDLVLIADKSRDKQNDFIVSQCYPLKDVTVTQEEFSTKRLLFKFSNSNSSLYECRDADECSRLLDVIRKAKDDLCDIFHVEEENSKRIRESFRYLQSTQQTPGRENNRSPNKNKRRSMGGSITPGRNVTGAMDQYLLQNLTLSMHSRPRSRDMSSTAQRLKFLDEGVEEIDIELARLRFESAVETLLDIESQLEDLSERISDEELMLLNLISLKIEQRREAISSKLSQSILSSNEIVHLKSGTENMIKLGLPEQALDLFLQNRSNFIQDLILQIGSVDNPTNYLTQLAVIRFQTIKKTVEDFQDIFKELGAKISSILVDWCSDEVDNHFKLIDKQLLNDEMLSPGSIKSSRKQIDGLKAVGLDFVYKLDEFIKKNSDKIR
B2: YCR030C_1 (protein, UniProt P25623 1-870, looked up)
Suppressor of yeast profilin …: MTEQRTKYADSILTTKSPYEATETIRIRLSQVKLLNKDFYLLFKELANLKRNYAQQLRKIIAENEDITKILNAQMIESNVLTPQEMSAFRFNSLGELRNVWDTVIEELKSDLKSSTEYYNTLDQQVVRELKESVENNTSWRESKDLHSKLSKNAASIEHYSKNNENSSHLEEARRQWDQQSPYLFELFETIDYNRLDTLKNCMLRFQTSFSDYLLNTTKECETVMTKFLAFEPQSEIDRFAKDASQYNFQLSSSSKEVVPNNASPASATGARPVSVSNGAANTEREKKSPQKDKRKSAFGNIGHRLASASSSLTHNDLMNNEFSDSTNNSSLKSKKSSHTLRSKVGSIFGRNKTKNKRQQQSSSNSHIQASITETPNNSSTRVSSTATSSIYQKQRRPTYSSSKSNNWTPGEASDTPPLPPHATPKNVDAPVTADTPPAQTFTPSEVPPSTPQQSSPPTAKEPDSSNLPKTVPISISQPPLQPQSKTKPLPVEPASPSISLPTATVDNQPSGQVDSRPLHIRAPALPPSRKQNFIHNRDSQLYDSLPNHGSGATPTSSSLSSIPQERPVSTLSSQITGELRELNPQATGSSTSLVGQSLFQHSSLDTSQFGLNASIAEVLNASFKDGMLQNSQLIGEIALNYLPNSVMNSPLPIGINLRINNGAKFEKVILNQAFIERVAPEEFKVNPSFIDSRTLGAIKYSIKEPIAPIVIHPVWRFESHQASVVLTVKMSPSLPDEISQIVIEDLVVFVNIDGANATSALSKPQGSFSKEKKRITWRFKEPVVLTRNGEGQRLIARFITDGLAHESAKGVITKFTISETDNVALPHSGAGSGITLTCQELDENNPFGGEWLDVNTKRTLTTGNYHGLA
B3: YOR042W_1 (protein, UniProt Q08412 1-411, looked up)
Ubiquitin-binding protein CUE5: MEEKEGIKDSSLLEKSNVPESINEDISKTTDVDLNSDGKKDNDTSAKDGTPKVEEKVNKSSGIDEDEVVTPAEDAKEEEEEHPPLPARRKSEEEPSKENPILQELKDAFPNLEEKYIKAVIIASQGVLSPAFNALLFLSDPESGKDIELPTQPVRKNPEAPARRRQTQLEQDELLARQLDEQFNSSHSRRRNRDRATRSMHEQRRRRHNPNEREQHHEDSEEEDSWSQFVEKDLPELTDRAGRSLQDTANKVSNWISDAYRRNFASGNEQNDNQHGHQDQQEWEPEIVDLSQGGKNSRPQQPERRRFNSFGVQVGDDSLESHGITLHNEDGFEDDEDVPPQLPTRTKSGESTGKVVAETTYIDTPDTETKKKWQPLPPEPLDTTPTKVNAVSRNKKNPDEDEFLINSDDEM
B4: YCR088W_1 (protein, UniProt P15891 2-592, looked up)
Actin-binding protein: ALEPIDYTTHSREIDAEYLKIVRGSDPDTTWLIISPNAKKEYEPESTGSSFHDFLQLFDETKVQYGLARVSPPGSDVEKIIIIGWCPDSAPLKTRASFAANFAAVANNLFKGYHVQVTARDEDDLDENELLMKISNAAGARYSIQTSSKQQGKASTPPVKKSFTPSKSPAPVSKKEPVKTPSPAPAAKISSRVNDNNDDDDWNEPELKERDFDQAPLKPNQSSYKPIGKIDLQKVIAEEKAKEDPRLVQKPTAAGSKIDPSSDIANLKNESKLKRDSEFNSFLGTTKPPSMTESSLKNDDDKVIKGFRNEKSPAQLWAERKAKQNSGNAETKAEAPKPEVPEDEPEGEPDVKDLKSKFEGLAASEKEEEEMENKFAPPPKKSEPTIISPKPFSKPQEPVKAEEAEQPKTDYKKIGNPLPGMHIEADNEEEPEENDDDWDDDEDEAAQPPLPSRNVASGAPVQKEEPEQEEIAPSLPSRNSIPAPKQEEAPEQAPEEEIEEEAEEAAPQLPSRSSAAPPPPPRRATPEKKPKENPWATAEYDYDAAEDNELTFVENDKIINIEFVDDDWWLGELEKDGSKGLFPSNYVSLGN
B5: YNL243W_1 (protein, UniProt P33338 1-968, looked up)
Protein SLA2: MSRIDSDLQKALKKACSVEETAPKRKHVRACIVYTWDHQSSKAVFTTLKTLPLANDEVQLFKMLIVLHKIIQEGHPSALAEAIRDRDWIRSLGRVHSGGSSYSKLIREYVRYLVLKLDFHAHHRGFNNGTFEYEEYVSLVSVSDPDEGYETILDLMSLQDSLDEFSQIIFASIQSERRNTECKISALIPLIAESYGIYKFITSMLRAMHRQLNDAEGDAALQPLKERYELQHARLFEFYADCSSVKYLTTLVTIPKLPVDAPDVFLINDVDESKEIKFKKREPSVTPARTPARTPTPTPPVVAEPAISPRPVSQRTTSTPTGYLQTMPTGATTGMMIPTATGAANAIFPQATAQMQPDFWANQQAQFANEQNRLEQERVQQLQQQQAQQELFQQQLQKAQQDMMNMQLQQQNQHQNDLIALTNQYEKDQALLQQYDQRVQQLESEITTMDSTASKQLANKDEQLTALQDQLDVWERKYESLAKLYSQLRQEHLNLLPRFKKLQLKVNSAQESIQKKEQLEHKLKQKDLQMAELVKDRDRARLELERSINNAEADSAAATAAAETMTQDKMNPILDAILESGINTIQESVYNLDSPLSWSGPLTPPTFLLSLLESTSENATEFATSFNNLIVDGLAHGDQTEVIHCVSDFSTSMATLVTNSKAYAVTTLPQEQSDQILTLVKRCAREAQYFFEDLMSENLNQVGDEEKTDIVINANVDMQEKLQELSLAIEPLLNIQSVKSNKETNPHSELVATADKIVKSSEHLRVDVPKPLLSLALMIIDAVVALVKAAIQCQNEIATTTSIPLNQFYLKNSRWTEGLISAAKAVAGATNVLITTASKLITSEDNENTSPEQFIVASKEVAASTIQLVAASRVKTSIHSKAQDKLEHCSKDVTDACRSLGNHVMGMIEDDHSTSQQQQPLDFTSEHTLKTAEMEQQVEILKLEQSLSNARKRLGEIRRHAYYNQDDD
B6: YER008C_1 (protein, UniProt P33332 1-1336, looked up)
Exocyst complex component SEC3: MRSSKSPFKRKSHSRETSHDENTSFFHKRTISGSSAHHSRNVSQGAVPSSAPPVSGGNYSHKRNVSRASNSSQTSNFLAEQYERDRKAIINCCFSRPDHKTGEPPNNYITHVRIIEDSKFPSSRPPPDSKLENKKKRLLILSAKPNNAKLIQIHKARENSDGSFQIGRTWQLTELVRVEKDLEISEGFILTMSKKYYWETNSAKERTVFIKSLITLYIQTFEGHVPELVNWDLSLFYLDERSYQRAVITNRPGSVSPIKSPTSNFTTNTTQSVGSVPFSAPTERTRRSETESVNPVSTPASVEYHAGMKSLNKAPYSSNSTLNEVNKRYELEQQQQQEEAELRRLEEQKRLQLQKENEMKRLEEERRIKQEERKRQMELEHQRQLEEEERKRQMELEAKKQMELKRQRQFEEEQRLKKERELLEIQRKQREQETAERLKKEEQEALAKKEEEEKSKRNKVDNESYTQEINGKVDNLLEDLNAVLAEETETTPTMQNGTYVPERSTARAHDQLKKPLNIAKVESLGGSDLNDSISLSDEIAGLNTSNLSGEDQDEKNDLSFEKGDEVRYSNNFEGEAPHVYHEVSIIQEEAPAVSQKLILPEENNESEALIESKEEIKTMENIDDEVLLEILTDINWSIEDDADSMIERIDLRLAETEYLFNQNLLSLQKIGPNIRPYEDKVNDECHRIIPTLSLFLMEMSNFSNDIENVESQDNGLQVESANKKLLWNTLDELLKTVSLDEISLNQLLECPIREKNLPWMENQLNLLLKAFQAIGSDGNEVEYNLREISGLKQRLQFYEKVTKIFLNRIVEEMQKKFSNIRGQDISHDQMIRILTTLLIFSPLILFCKEISQKSYQAIVENWNVSIQPVYMELWTKKISQLQGIDTNDEKMNELSLSQLLNEWDTFRKERKTNDINPVFKNSFSLLTECLQTMRQECIVYQNFVEVFFHISSKHNFEEYIKHFNDPDAPPILLDTVKVMQSDREAAVIETQLVSRIFQPIVTRLSSYFVELVKAEPTVAPALTFYLENEIKSLESSNHEFLLSAVTRMYTQIKQVWSDNVEEQVLHFERISNATTNGEILPGILDLPVGLKNSEDLFQFAKRSMDIKDTDEGYESIELMNSSFRKLSIAATRSITHKEVNSSINPNLSDTAALNNDYMETISLLVNSNWLTEMLSMLNFNKDGIFDTSLQNVKKVFDVEKESYASFLLRDTMPKLTAFVYGVSNIIENTNNVNMTNPSRWAAYSRQNLENILLAYTSHEIETLVKRLHTHMVNDFGYHQENAINNVLCDKLWSCIQGQTVSLYLKLYTVIDKHYRGTNIRFTKNDIISAFEEYKNA

System: PPIs identified as affected by the SH3 domain deletions
Assay: Liquid DHFR-PCA low-throughput validation of PPIs affected by SH3 deletion (Fig. S1D-E)
Format: cell-based, Saccharomyces cerevisiae
Details: label = prey, liquid DHFR-PCA, prey _1 = lost, _2 = gained in screen
How it was run: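 Yeast diploids from DHFR-PCA mating grown 48 h in synthetic complete MSG medium pH 6.0 with NAT and HPH, normalized to 1 OD and diluted to 0.1 OD in liquid PCA selection medium. Growth followed by OD every 15 min for 72 h at 30 °C.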

Molecule | Ratio (Deletedscore / WTscore) (bait BEM1-1) | Ratio (Deletedscore / WTscore) (bait BEM1-2) | Ratio (Deletedscore / WTscore) (bait RVS167) | Ratio (Deletedscore / WTscore) (bait MYO3) | Ratio (Deletedscore / WTscore) (bait MYO5) | Ratio (Deletedscore / WTscore) (bait BBC1) | Ratio (Deletedscore / WTscore) (bait PIN3) | Ratio (Deletedscore / WTscore) (bait BZZ1-1) | Ratio (Deletedscore / WTscore) (bait HOF1) | Ratio (Deletedscore / WTscore) (bait LSB3)
B1 | 0.5987 | 0.6932 | 0.8234 | – | – | – | – | – | – | –
B2 | 1.033 | 0.5499 | 0.6932 | 0.7978 | 0.5102 | – | – | – | – | –
B3 | – | – | – | – | – | 0.4675 | 0.5809 | – | – | –
B4 | 0.8735 | – | – | – | – | – | – | – | – | –
B5 | 1.137 | 0.8469 | – | 0.5927 | 0.7315 | 0.664 | 1.05 | 0.856 | 0.8741 | –
B6 | 0.9745 | 0.478 | 0.6394 | – | – | – | – | – | – | 0.7503
